In patent US11999771B2, “IL-7Rαγc ligand immunoglobulin fusion proteins” (MEDIKINE, INC., priority 2022, dated 2024):

Assay: Pharmacokinetics of the IL-7Rαγc IgG2-Fc fusion protein in non-human primates (serum level quantified by TF-1-7Rα STAT5 phosphorylation bioassay)
Type: in vivo
Conditions: single dose of 1 mg/kg
Method: A pharmacokinetic study of an IL-7Rαγc IgG2-Fc fusion protein was performed in non-human primates. The IL-7Rαγc IgG2-Fc fusion having SEQ ID NO: 45 was administered intravenously (IV), subcutaneously (SC), or intramuscularly (IM) with a single dose of 1 mg/kg into each non-human primate (n=10). Blood samples were collected at times post-dose into serum separator vials. Samples were centrifuged at 10,000× g for 5 min at 4° C. followed by transferring the serum to a new tube. Samples were frozen and stored at −80° C. prior to testing.
The TF-1-7Rα STAT5 phosphorylation bioassay was used to quantity the amount of the IL-7Rαγc IgG2-Fc fusion in each of the serum samples. Three-fold serial dilutions of each serum sample or a compound reference standard in starvation media were added to the cells and incubated for 30 mins with the cells. Cells extracts were prepared and the quantity of phosphorylated STAT5 was determined as described in Example 3. The IL-7Rαγc IgG2-Fc fusion protein concentration in each serum sample was calculated using a standard curve generated from the reference standard.

B1: hu-IgG2-Fc-(GS)10GG-IL-7Raγc (protein)
chain: ERKSSVECPPCPAPPVAGPSVFLFPPKPKDTLMISRTPEVTCVVVDVSHEDPEVQFNWYVDGVEVHNAKTKPREEQFNSTFRVVSVLTVVHQDWLNGKEYKCKVSNKGLPAPIEKTISKTKGQPREPQVYTLPPSREEMTKNQVSLTCLVKGFYPSDIAVEWESNGQPENNYKTTPPMLDSDGSFFLYSKLTVDKSRWQQGNVFSCSVMHEALHNHYTQKSLSLSPGAGSGSGSGSGSGSGSGSGSGSGGGWGIPWCTLDPGSLQCAWLGKHGGGGSGGVVCQDWEGVELCWQGG
notes: IL-7R agonist
bioavailability % F for IM administration (intramuscular vs intravenous): 117%
bioavailability % F for SC administration (subcutaneous vs intravenous): 112%
